System: T-cells
Assay: TL1A treatment of T-cells (IL12+IL18, TL1A+IL12+IL18, untreated): miR-155, INFG and IL22 expression
Type: cell-based
Text: T-cells were divided into 3 treatment groups: cells treated with IL12+IL18, cells treated with TL1A+IL12+IL18, and untreated cells (ut), as depicted in FIG. 13A.

[1] = TL1A+IL12+IL18 compared to no treatment or only IL12 and L18 treatment
[2] = treatment with TL1A (TL1A+IL12+IL18)

B1: TL1A: TNF Superfamily Member 15 (TL1A), cytokine encoded by TNFSF15, used to treat T-cells (protein)
chain: MAEDLGLSFGETASVEMLPEHGSCRPKARSSSARWALTCCLVLLPFLAGLTTYLLVSQLRAQGEACVQFQALKGQEFAPSHQQVYAPLRADGDKPRAHLTVVRQTPTQHFKNQFPALHWEHELGLAFTKNRMNYTNKFLLIPESGDYFIYSQVTFRGMTSECSEIRQAGRPNKPDSITVVITKVTDSYPEPTQLLMGTKSVCEVGSNWFQPIYLGAMFSLQEGDKLMVNVSDISLVDYTKEDKTFFGAFLL
In the case of B1, the miR-155 expression (FIG. 13B) is reported as “upregulation”, the “miR-155 3p” value [1] is reported as “upregulation” and the “miR-155 5p” value [1] is reported as “upregulation”. The “IL22 mRNA” value (cells treated with TL1A (TL1A+IL12+IL18)) was “increased”, the INFG secretion [2] was “increase” and the “levels of INFG mRNA” value [2] was “increase”.
